{"source": "patent US20140045930A1", "about": "(published 2014)", "binders": {"B1": {"name": "GFP-YcfD (N-terminally GFP-tagged YcfD) (other)", "chain": "MEYQLTLNWPDFLERHWQKRPVVLKRGFNNFIDPISPDELAGLAMESEVDSRLVSHQDGKWQVSHGPFESYDHLGETNWSLLVQAVNHWHEPTAALMRPFRELPDWRIDDLMISFSVPGGGVGPHLDQYDVFIIQGTGRRRWRVGEKLQMKQHCPHPDLLQVDPFEAIIDEELEPGDILYIPPGFPHEGYALENAMNYSVGFRAPNTRELISGFADYVLQRELGGNYYSDPDVPPRAHPADVLPQEMDKLREMMLELINQPEHFKQWFGEFISQSRHELDIAPPEPPYQPDEIYDALKQGEVLVRLGGLRVLRIGDDVYANGEKIDSPHRPALDALASNIALTAENFGDALEDPSFLAMLAALVNSGYWFFEG", "notes": "also called green fluorescent protein (GFP)-tagged YcfD"}}, "biological_target": "E. coli ribosomal protein L16 (endogenous) (E. coli, UniProt A7ZSK2 1-136)", "assay": "co-immunoprecipitation with anti-GFP (GFP-nanotrap), SDS-PAGE, identification by LC-MS/MS", "data": [{"binder": "B1", "values": [{"measurement": "binding result", "value": "binds"}]}]}
